Data from patent publication US20260132182A1 (published 2026).
Like-named read-outs stand apart in the source and are kept apart here. Starred links: 1 amine or outer side, 2 acyl side, 3 side chain; linkers in the order of their positions; H or OH if unused. Non-standard residues stand in square brackets, D forms with d. Groups on a side chain read outwards from the residue. *: point of attachment. C18 diacid = O=C(O)CCCCCCCCCCCCCCCCC(=O)*; γGlu = O=C(O)[C@H](CCC(=O)[*:2])N[*:1]; AEEA = NCCOCCOCC(=O)O; Aib = CC(C)(N)C(=O)O

T1: human amylin-3 (a) receptor (human, UniProt P30988 25-474; O60896 24-148)
T1 sequence (looked up) 1: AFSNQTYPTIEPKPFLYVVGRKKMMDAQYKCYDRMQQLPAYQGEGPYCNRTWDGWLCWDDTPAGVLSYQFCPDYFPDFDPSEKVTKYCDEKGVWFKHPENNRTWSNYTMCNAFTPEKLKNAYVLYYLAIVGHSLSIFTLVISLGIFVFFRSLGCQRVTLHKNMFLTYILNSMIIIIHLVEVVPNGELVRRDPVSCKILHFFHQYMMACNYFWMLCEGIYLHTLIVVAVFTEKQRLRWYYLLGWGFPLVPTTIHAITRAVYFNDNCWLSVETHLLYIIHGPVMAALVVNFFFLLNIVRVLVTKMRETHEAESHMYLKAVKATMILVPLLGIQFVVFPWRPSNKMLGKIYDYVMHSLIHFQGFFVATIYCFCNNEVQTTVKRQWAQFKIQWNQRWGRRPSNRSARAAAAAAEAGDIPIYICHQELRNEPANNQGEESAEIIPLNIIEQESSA
T1 sequence (looked up) 2: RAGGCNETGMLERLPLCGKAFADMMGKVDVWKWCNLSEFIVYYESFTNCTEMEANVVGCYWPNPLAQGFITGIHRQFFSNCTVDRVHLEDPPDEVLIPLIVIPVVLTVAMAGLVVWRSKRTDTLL

B1: Comparator compound 0672 (peptide)
peptide: H[Aib]EGTFTSDVSSYLEEQAAREFIAWLVRGRK([AEEA-AEEA-γGlu-C18 diacid])GGGGEKCNTATCATQRLAEFLRHSSNNFGPILPPTNVGSNTP-NH2
modifications: ends and bridges not checked
B2: Compound 0111 (peptide)
peptide: H[Aib]EGTFTSDVSSYLEEQAAREFIAWLVRGRK([AEEA-AEEA-γGlu-C18 diacid])GGGGEASELSTAALGRLSAELHELATLPRTETGSGSP-NH2
B3: Comparator compound 0671 (peptide)
peptide: H[Aib]EGTFTSDVSSYLEEQAAREFIAWLVRGRK([AEEA-AEEA-γGlu-C18 diacid])GGGGEKCNTATCATQRLANFLVHSSNNFGPILPPTNVGSNTY-NH2
modifications: ends and bridges not checked

How the values were obtained:
Assay in all cases: cell-based or functional assay
[1] = target: T1, human amylin-3 (a) receptor
[2] = target: T1, human amylin-3 (a) receptor; remark: listed apart in the source
human GLP-1 receptor [3] = target: T2, human GLP-1 receptor (human, UniProt P43220 24-463)
human GLP-1 receptor [4] = target: T2, human GLP-1 receptor; remark: listed apart in the source
[5] = target: T1, human amylin-3 (a) receptor; remark: listed apart in the source

Binder	Human AmyR3 potency [EC50 (pM)] [1]	Human AmyR3 potency [EC50 (pM)] [2]	Human GLP-1R potency [EC50 (pM)] (human GLP-1 receptor [3])	Human GLP-1R potency [EC50 (pM)] (human GLP-1 receptor [4])	Human AmyR3 potency [EC50 (pM)] [5]
KCNTATCATQRLANFLVHSSNNFGPILPPTNVGSNTY [Pramlintide]	7.8 pM	7.8 pM			
B1	606 pM		2.2 pM		
B2	11.5 pM		3 pM	3 pM	11.5 pM
B3	230 pM		4.5 pM		
